Reference: publication PMC6946400

Experiments:
[1] = test system: VASH1 27-kDa N-terminal part-GST; assay: SPR; details: HBS-EP: 10 mM Hepes pH 7.4, 150 mM NaCl, 3 mM EDTA, 0.005% surfactant P20 (stated for immobilization); SA chip, Biacore T200, protein 16.25-300 nM, 1:1 …
VASH1 full-length 44 kDa = assay: SPR; details: single-cycle kinetics; HBS-EP: 10 mM Hepes pH 7.4, 150 mM NaCl, 3 mM EDTA, 0.005% surfactant P20 (stated for immobilization); SA chip, Biacore T200, protein 16.25-300 nM, 1:1 …

Substance: FGF1 IRES
- Kd [1]: 2800 nM
- Kd (VASH1 full-length 44 kDa): 6.5 nM

Substance: VEGFAa IRES
- Kd (VASH1 full-length 44 kDa): 8 nM

Substance: EMCV IRES
- Kd (VASH1 full-length 44 kDa): 9.6 nM
